# Source: US20250115886A1 (University of Pennsylvania, published 2025)
# T1: RGG-SZ2 (Caenorhabditis elegans)
# T1 construct: Purified from E. coli; also called single RGG domain tagged with SZ2
# T1 chain: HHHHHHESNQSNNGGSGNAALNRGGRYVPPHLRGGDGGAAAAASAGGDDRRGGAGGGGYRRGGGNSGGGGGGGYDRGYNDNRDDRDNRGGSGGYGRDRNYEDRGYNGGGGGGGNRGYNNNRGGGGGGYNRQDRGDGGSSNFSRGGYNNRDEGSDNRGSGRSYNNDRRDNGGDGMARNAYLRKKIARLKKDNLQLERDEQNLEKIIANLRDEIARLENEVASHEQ
# B1: SZ1-RGG (other)
# chain: HHHHHHMNLVAQLENEVASLENENETLKKKNLHKKDLIAYLEKEIANLRKKIEEESNQSNNGGSGNAALNRGGRYVPPHLRGGDGGAAAAASAGGDDRRGGAGGGGYRRGGGNSGGGGGGGYDRGYNDNRDDRDNRGGSGGYGRDRNYEDRGYNGGGGGGGNRGYNNNRGGGGGGYNRQDRGDGGSSNFSRGGYNNRDEGSDNRGSGRSYNNDRRDNGGDG
# notes: Purified from E. coli; also called single RGG domain tagged with SZ1
# B2: Cdc24-mScarlet-TsCC(B) (other, not shown: large carriers)
# chain: MAIQTRFASGTSLSDLKPKPSATSISIPMQNVMNKPVTEQDSLFHICANIRKRLEVLPQLKPFLQLAYQSSEVLSERQSLLLSQKQHQELLKSNGANRDSSDLAPTLRSSSISTATSLMSMEGISYTNSNPSATPNMEDTLLTFSMGILPITMDCDPVTQLSQLFQQGAPLCILFNSVKPQFKLPVIASDDLKVCKKSIYDFILGCKKHFAFNDEELFTISDVFANSTSQLVKVLEVVETLMNSSPTIFPSKSKTQQIMNAENQHRHQPQQSSKKHNEYVKIIKEFVATERKYVHDLEILDKYRQQLLDSNLITSEELYMLFPNLGDAIDFQRRFLISLEINALVEPSKQRIGALFMHSKHFFKLYEPWSIGQNAAIEFLSSTLHKMRVDESQRFIINNKLELQSFLYKPVQRLCRYPLLVKELLAESSDDNNTKELEAALDISKNIARSINENQRRTENHQVVKKLYGRVVNWKGYRISKFGELLYFDKVFISTTNSSSEPEREFEVYLFEKIIILFSEVVTKKSASSLILKKKSSTSASISASNITDNNGSPHHSYHKRHSNSSSSNNIHLSSSSAAAIIHSSTNSSDNNSNNSSSSSLFKLSANEPKLDLRGRIMIMNLNQIIPQNNRSLNITWESIKEQGNFLLKFKNEETRDNWSSCLQQLIHDLKNEQFKARHHSSTSTTSSTAKSSSMMSPTTTMNTPNHHNSRQTHDSMASFSSSHMKRVSDVLPKRRTTSSSFESEIKSISENFKNSIPESSILFRISYNNNSNNTSSSEIFTLLVEKVWNFDDLIMAINSKISNTHNNNISPITKIKYQDEDGDFVVLGSDEDWNVAKEMLAENNEKFLNIRLYVEVAEEVKAVSAALSERITQLATELNDKAVRAAERRVAEVTRAAGEQTAQAERELADAAQTVDDLEEKLVELQDRYDSLTLALESERSLRQQHDVEMAQLKERLAAAEENTRQEEERYQEQKTVLQDALNAEQAQHKNTREDLQKRLEQISVEANARTEELKSERDKVNTFLTRLESQENALASEEQQHLATRETLQQRLEQAIADTQARAGEIALERDRVSSLTARLESQEKASSEQLVRMGSEIASLTERCTQLENQRDDARLETMGEKETVAALRGEAEALKRQNQSLMAALSGNKQTGGQNA
# B3: (RGG)3 condensates that lack the interaction tag (other)
# chain: ESNQSNNGGSGNAALNRGGRYVPPHLRGGDGGAAAAASAGGDDRRGGAGGGGYRRGGGNSGGGGGGGYDRGYNDNRDDRDNRGGSGGYGRDRNYEDRGYNGGGGGGGNRGYNNNRGGGGGGYNRQDRGDGGSSNFSRGGYNNRDEGSDNRGSGRSYNNDRRDNGGDGESNQSNNGGSGNAALNRGGRYVPPHLRGGDGGAAAAASAGGDDRRGGAGGGGYRRGGGNSGGGGGGGYDRGYNDNRDDRDNRGGSGGYGRDRNYEDRGYNGGGGGGGNRGYNNNRGGGGGGYNRQDRGDGGSSNFSRGGYNNRDEGSDNRGSGRSYNNDRRDNGGDGESNQSNNGGSGNAALNRGGRYVPPHLRGGDGGAAAAASAGGDDRRGGAGGGGYRRGGGNSGGGGGGGYDRGYNDNRDDRDNRGGSGGYGRDRNYEDRGYNGGGGGGGNRGYNNNRGGGGGGYNRQDRGDGGSSNFSRGGYNNRDEGSDNRGSGRSYNNDRRDNGGDG
# notes: Control scaffold without coiled-coil tag; The other scaffolds carry GFP; also called control scaffolds that lack the cognate coiled-coil tag
# How the values were obtained:
# RGG-SZ2 = target: T1, RGG-SZ2; test: fluorescence microscopy of purified proteins, 4 µM
# [1] = target: TsCC(A)-(RGG)3-GFP scaffold (Caenorhabditis elegans); test: cell-based or functional assay
# Cdc24-mScarlet-TsCC(B) = target: B2; test: fluorescence microscopy of client localization in yeast
binder,measurement,setting,value
B1,binding result,RGG-SZ2,binds
B2,fold decrease in rate of cell proliferation in liquid culture,[1],~12 fold
B3,binding result,Cdc24-mScarlet-TsCC(B),no binding
